Results reported in patent publication US20140274782A1, “AFFINITY REAGENTS AND METHODS FOR DETECTION, PURIFICATION, AND PROTEOMIC ANALYSIS OF METHYLATED PROTEINS” (The Board of Trustees of the Leland Stanford Junior …, priority 2013, published 2014).

T1: G9a and GLP (Homo sapiens, UniProt Q96KQ7+Q9H9B1)
T1 sequence (Q96KQ7 2-1210 limits assumed): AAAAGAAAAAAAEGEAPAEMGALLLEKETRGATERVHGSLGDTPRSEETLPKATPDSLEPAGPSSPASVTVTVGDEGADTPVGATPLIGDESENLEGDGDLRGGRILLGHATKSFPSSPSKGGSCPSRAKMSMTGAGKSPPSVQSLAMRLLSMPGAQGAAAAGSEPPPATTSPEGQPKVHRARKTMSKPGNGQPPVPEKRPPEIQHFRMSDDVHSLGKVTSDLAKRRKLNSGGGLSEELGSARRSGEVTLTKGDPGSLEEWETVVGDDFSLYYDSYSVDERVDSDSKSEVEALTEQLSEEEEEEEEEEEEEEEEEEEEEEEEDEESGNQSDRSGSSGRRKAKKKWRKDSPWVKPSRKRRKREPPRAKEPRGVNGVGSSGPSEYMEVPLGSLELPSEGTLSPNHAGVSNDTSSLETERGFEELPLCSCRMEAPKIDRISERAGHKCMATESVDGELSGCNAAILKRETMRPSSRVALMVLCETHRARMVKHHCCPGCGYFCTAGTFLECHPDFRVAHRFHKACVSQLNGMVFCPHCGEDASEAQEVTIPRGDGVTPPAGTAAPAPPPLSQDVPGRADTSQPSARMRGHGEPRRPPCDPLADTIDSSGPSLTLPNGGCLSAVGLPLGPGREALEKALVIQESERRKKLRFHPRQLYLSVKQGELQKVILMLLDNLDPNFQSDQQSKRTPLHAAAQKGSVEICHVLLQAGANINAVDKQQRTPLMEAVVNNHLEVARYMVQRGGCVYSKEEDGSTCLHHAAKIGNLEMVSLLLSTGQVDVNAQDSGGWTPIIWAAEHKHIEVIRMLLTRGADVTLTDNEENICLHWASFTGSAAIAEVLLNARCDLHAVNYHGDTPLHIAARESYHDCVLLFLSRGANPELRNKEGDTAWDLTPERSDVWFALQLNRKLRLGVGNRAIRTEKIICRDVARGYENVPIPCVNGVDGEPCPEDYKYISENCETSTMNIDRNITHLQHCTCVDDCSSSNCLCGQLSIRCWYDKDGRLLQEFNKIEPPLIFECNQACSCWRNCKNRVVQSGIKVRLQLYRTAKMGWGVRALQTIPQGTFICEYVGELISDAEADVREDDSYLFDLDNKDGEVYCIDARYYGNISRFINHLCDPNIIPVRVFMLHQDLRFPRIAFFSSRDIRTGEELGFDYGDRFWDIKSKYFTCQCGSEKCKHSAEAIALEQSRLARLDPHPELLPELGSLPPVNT
T1 sequence (Q9H9B1 2-1298 limits assumed): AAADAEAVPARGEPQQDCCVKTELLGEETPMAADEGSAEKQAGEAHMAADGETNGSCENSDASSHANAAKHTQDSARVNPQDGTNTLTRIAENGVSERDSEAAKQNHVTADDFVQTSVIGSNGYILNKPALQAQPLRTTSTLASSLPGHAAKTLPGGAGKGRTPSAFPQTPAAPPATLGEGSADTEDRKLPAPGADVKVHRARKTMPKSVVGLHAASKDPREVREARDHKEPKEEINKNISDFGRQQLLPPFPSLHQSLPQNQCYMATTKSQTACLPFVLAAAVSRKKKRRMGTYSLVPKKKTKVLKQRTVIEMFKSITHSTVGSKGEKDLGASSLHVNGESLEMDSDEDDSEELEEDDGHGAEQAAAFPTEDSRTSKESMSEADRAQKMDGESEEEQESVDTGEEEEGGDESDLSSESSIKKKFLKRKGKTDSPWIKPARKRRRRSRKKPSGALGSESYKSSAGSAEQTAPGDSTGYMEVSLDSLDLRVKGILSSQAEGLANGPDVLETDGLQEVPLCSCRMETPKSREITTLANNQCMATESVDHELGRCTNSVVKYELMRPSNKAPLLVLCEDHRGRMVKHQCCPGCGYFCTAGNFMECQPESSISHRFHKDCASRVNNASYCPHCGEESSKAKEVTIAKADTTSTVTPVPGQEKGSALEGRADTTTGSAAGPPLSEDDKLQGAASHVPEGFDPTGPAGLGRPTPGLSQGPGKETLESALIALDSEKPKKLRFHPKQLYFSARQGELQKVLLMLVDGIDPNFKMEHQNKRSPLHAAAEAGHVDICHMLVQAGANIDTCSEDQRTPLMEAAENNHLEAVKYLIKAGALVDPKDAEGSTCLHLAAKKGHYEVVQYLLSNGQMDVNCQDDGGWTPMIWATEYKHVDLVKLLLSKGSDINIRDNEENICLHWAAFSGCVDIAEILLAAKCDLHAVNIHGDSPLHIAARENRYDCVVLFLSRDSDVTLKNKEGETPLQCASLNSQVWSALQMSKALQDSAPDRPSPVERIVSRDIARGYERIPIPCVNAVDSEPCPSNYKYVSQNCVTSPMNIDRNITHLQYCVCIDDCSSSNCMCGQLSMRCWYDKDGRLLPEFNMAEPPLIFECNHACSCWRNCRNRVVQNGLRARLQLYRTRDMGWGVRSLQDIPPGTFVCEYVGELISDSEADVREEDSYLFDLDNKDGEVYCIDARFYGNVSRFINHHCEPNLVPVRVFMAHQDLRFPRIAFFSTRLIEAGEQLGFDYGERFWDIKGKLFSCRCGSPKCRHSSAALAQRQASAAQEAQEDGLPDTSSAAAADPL

B1: DDX23 (protein, UniProt Q9BUQ8 1-820, looked up)
Probable ATP-dependent RNA …: MAGELADKKDRDASPSKEERKRSRTPDRERDRDRDRKSSPSKDRKRHRSRDRRRGGSRSRSRSRSKSAERERRHKERERDKERDRNKKDRDRDKDGHRRDKDRKRSSLSPGRGKDFKSRKDRDSKKDEEDEHGDKKPKAQPLSLEELLAKKKAEEEAEAKPKFLSKAEREAEALKRRQQEVEERQRMLEEERKKRKQFQDLGRKMLEDPQERERRERRERMERETNGNEDEEGRQKIREEKDKSKELHAIKERYLGGIKKRRRTRHLNDRKFVFEWDASEDTSIDYNPLYKERHQVQLLGRGFIAGIDLKQQKREQSRFYGDLMEKRRTLEEKEQEEARLRKLRKKEAKQRWDDRHWSQKKLDEMTDRDWRIFREDYSITTKGGKIPNPIRSWKDSSLPPHILEVIDKCGYKEPTPIQRQAIPIGLQNRDIIGVAETGSGKTAAFLIPLLVWITTLPKIDRIEESDQGPYAIILAPTRELAQQIEEETIKFGKPLGIRTVAVIGGISREDQGFRLRMGCEIVIATPGRLIDVLENRYLVLSRCTYVVLDEADRMIDMGFEPDVQKILEHMPVSNQKPDTDEAEDPEKMLANFESGKHKYRQTVMFTATMPPAVERLARSYLRRPAVVYIGSAGKPHERVEQKVFLMSESEKRKKLLAILEQGFDPPIIIFVNQKKGCDVLAKSLEKMGYNACTLHGGKGQEQREFALSNLKAGAKDILVATDVAGRGIDIQDVSMVVNYDMAKNIEDYIHRIGRTGRAGKSGVAITFLTKEDSAVFYELKQAILESPVSSCPPELANHPDAQHKPGTILTKKRREETIFA
B2: NTHL1 (protein, UniProt P78549 23-304, looked up)
Endonuclease III-like protein …: GCREEPGPLRRREAAAEARKSHSPVKRPRKAQRLRVAYEGSDSEKGEGAEPLKVPVWEPQDWQQQLVNIRAMRNKKDAPVDHLGTEHCYDSSAPPKVRRYQVLLSLMLSSQTKDQVTAGAMQRLRARGLTVDSILQTDDATLGKLIYPVGFWRSKVKYIKQTSAILQQHYGGDIPASVAELVALPGVGPKMAHLAMAVAWGTVSGIAVDTHVHRIANRLRWTKKATKSPEETRAALEEWLPRELWHEINGLLVGFGQQTCLPVHPRCHACLNQALCPAAQGL
B3: ZNF598 (protein, UniProt Q86UK7 1-904, looked up)
E3 ubiquitin-protein ligase …: MAAAGGAEGRRAALEAAAAAAPERGGGSCVLCCGDLEATALGRCDHPVCYRCSTKMRVLCEQRYCAVCREELRQVVFGKKLPAFATIPIHQLQHEKKYDIYFADGKVYALYRQLLQHECPRCPELPPFSLFGDLEQHMRRQHELFCCRLCLQHLQIFTYERKWYSRKDLARHRMQGDPDDTSHRGHPLCKFCDERYLDNDELLKHLRRDHYFCHFCDSDGAQDYYSDYAYLREHFREKHFLCEEGRCSTEQFTHAFRTEIDLKAHRTACHSRSRAEARQNRHIDLQFSYAPRHSRRNEGVVGGEDYEEVDRYSRQGRVARAGTRGAQQSRRGSWRYKREEEDREVAAAVRASVAAQQQEEARRSEDQEEGGRPKKEEAAARGPEDPRGPRRSPRTQGEGPGPKETSTNGPVSQEAFSVTGPAAPGCVGVPGALPPPSPKLKDEDFPSLSASTSSSCSTAATPGPVGLALPYAIPARGRSAFQEEDFPALVSSVPKPGTAPTSLVSAWNSSSSSKKVAQPPLSAQATGSGQPTRKAGKGSRGGRKGGPPFTQEEEEDGGPALQELLSTRPTGSVSSTLGLASIQPSKVGKKKKVGSEKPGTTLPQPPPATCPPGALQAPEAPASRAEGPVAVVVNGHTEGPAPARSAPKEPPGLPRPLGSFPCPTPQEDFPALGGPCPPRMPPPPGFSAVVLLKGTPPPPPPGLVPPISKPPPGFSGLLPSPHPACVPSPATTTTTKAPRLLPAPRAYLVPENFRERNLQLIQSIRDFLQSDEARFSEFKSHSGEFRQGLISAAQYYKSCRDLLGENFQKVFNELLVLLPDTAKQQELLSAHTDFCNREKPLSTKSKKNKKSAWQATTQQAGLDCRVCPTCQQVLAHGDASSHQALHAARDDDFPSLQAIARIIT
B4: PRPF40A (protein, UniProt O75400 1-957, looked up)
Pre-mRNA-processing factor 40 …: MRPGTGAERGGLMVSEMESHPPSQGPGDGERRLSGSSLCSGSWVSADGFLRRRPSMGHPGMHYAPMGMHPMGQRANMPPVPHGMMPQMMPPMGGPPMGQMPGMMSSVMPGMMMSHMSQASMQPALPPGVNSMDVAAGTASGAKSMWTEHKSPDGRTYYYNTETKQSTWEKPDDLKTPAEQLLSKCPWKEYKSDSGKPYYYNSQTKESRWAKPKELEDLEGYQNTIVAGSLITKSNLHAMIKAEESSKQEECTTTSTAPVPTTEIPTTMSTMAAAEAAAAVVAAAAAAAAAAAAANANASTSASNTVSGTVPVVPEPEVTSIVATVVDNENTVTISTEEQAQLTSTPAIQDQSVEVSSNTGEETSKQETVADFTPKKEEEESQPAKKTYTWNTKEEAKQAFKELLKEKRVPSNASWEQAMKMIINDPRYSALAKLSEKKQAFNAYKVQTEKEEKEEARSKYKEAKESFQRFLENHEKMTSTTRYKKAEQMFGEMEVWNAISERDRLEIYEDVLFFLSKKEKEQAKQLRKRNWEALKNILDNMANVTYSTTWSEAQQYLMDNPTFAEDEELQNMDKEDALICFEEHIRALEKEEEEEKQKSLLRERRRQRKNRESFQIFLDELHEHGQLHSMSSWMELYPTISSDIRFTNMLGQPGSTALDLFKFYVEDLKARYHDEKKIIKDILKDKGFVVEVNTTFEDFVAIISSTKRSTTLDAGNIKLAFNSLLEKAEAREREREKEEARKMKRKESAFKSMLKQAAPPIELDAVWEDIRERFVKEPAFEDITLESERKRIFKDFMHVLEHECQHHHSKNKKHSKKSKKHHRKRSRSRSGSDSDDDDSHSKKKRQRSESRSASEHSSSAESERSYKKSKKHKKKSKKRRHKSDSPESDAEREKDKKEKDRESEKDRTRQRSESKHKSPKKKTGKDSGNWDTSGSELSEGELEKRRRTLLEQLDDDQ
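Wherever Candidate G9a/GLP target is given: mass spectrometry (Q-Exactive) SILAC quantitation, DMSO/UNC0638 ratio computed after subtracting 3×MBTD355N mutant pull-down background, only proteins with at least twofold 3×MBT over mutant signal considered.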
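Wherever Relative to UNC0638 Average is given: mass spectrometry (Q-Exactive) SILAC quantitation, DMSO/UNC0638 ratio computed after subtracting 3×MBTD355N mutant pull-down background, only proteins with at least twofold 3×MBT over mutant signal considered.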
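Wherever Relative to UNC0638 UNC Heavy is given: mass spectrometry (Q-Exactive) SILAC quantitation, DMSO/UNC0638 ratio computed after subtracting 3×MBTD355N mutant pull-down background, only proteins with at least twofold 3×MBT over mutant signal considered.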
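Wherever Relative to UNC0638 UNC Light is given: mass spectrometry (Q-Exactive) SILAC quantitation, DMSO/UNC0638 ratio computed after subtracting 3×MBTD355N mutant pull-down background, only proteins with at least twofold 3×MBT over mutant signal considered.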

These molecules were tested on 3×MBT domain of L3MBTL1 (assay: Triple SILAC pull-down, 3xMBT/3xMBTD355N ratio (cytoplasmic, nuclear and chromatin fractions of 293T cells)). Details: SILAC ratio, pull-down 3xMBT vs 3xMBTD355N; experiment with UNC0638 in heavy SILAC media.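 Further: proteins quantified with MaxQuant, requiring at least two unique peptides and quantification in both label directions, normalized to the mean of proteins from a digested loading control.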
Type: binding, human
B1 was tested, and the “3xMBT/D355N UNC Heavy” value was 2.24 log base 2. B2 was tested, and the “3xMBT/D355N UNC Heavy” value was 0.48 log base 2. With B3 the “3xMBT/D355N UNC Heavy” value was 1.92 log base 2. For B4, the “3xMBT/D355N UNC Heavy” value was 3.54 log base 2.

Same assay, conditions: SILAC ratio, pull-down 3xMBT vs 3xMBTD355N; experiment with UNC0638 in light SILAC media
With B1 the “3xMBT/D355N UNC Light” value was 2.27 log base 2. In the case of B2, the “3xMBT/D355N UNC Light” value is reported as 1.60 log base 2. In the case of B3, the “3xMBT/D355N UNC Light” value is reported as 3.58 log base 2. With B4 the “3xMBT/D355N UNC Light” value was 2.13 log base 2.

The molecules below were run against T1, G9a and GLP (assay: Triple SILAC pull-down after UNC0638 treatment of 293T cells, DMSO/UNC0638 ratio of protein captured by 3×MBT). Details: SILAC ratio DMSO/UNC0638 of protein pulled down with 3xMBT; UNC0638 in heavy SILAC media.
Type: cell-based
Parameters: cells were treated for 24 hours with UNC0638 at 2.5 μM or DMSO vehicle control; endogenous in cells; host or cells: HEK 293T
For B1, the “Relative to UNC0638 UNC Heavy” value was 0.29 log base 2. In the case of B2, the “Relative to UNC0638 UNC Heavy” value is reported as 0.72 log base 2. With B3 the “Relative to UNC0638 UNC Heavy” value was 0.52 log base 2. For B4, the “Relative to UNC0638 UNC Heavy” value was 0.33 log base 2.

Same assay, conditions: SILAC ratio DMSO/UNC0638 of protein pulled down with 3xMBT; UNC0638 in light SILAC media
B1 was tested, and the “Relative to UNC0638 UNC Light” value was 0.54 log base 2. For B2, the “Relative to UNC0638 UNC Light” value was −0.12 log base 2. B3 was tested, and the “Relative to UNC0638 UNC Light” value was 0.06 log base 2. B4 was tested, and the “Relative to UNC0638 UNC Light” value was 0.24 log base 2.

Same assay, conditions: average of UNC Light and UNC Heavy experiments
In the case of B1, the “Relative to UNC0638 Average” value is reported as 0.42 log base 2. For B2, the “Relative to UNC0638 Average” value was 0.30 log base 2. For B3, the “Relative to UNC0638 Average” value was 0.29 log base 2. With B4 the “Relative to UNC0638 Average” value was 0.29 log base 2.

Same assay, conditions: reduced association with 3xMBT after UNC0638 treatment
With B1 the “Candidate G9a/GLP target” value was “✓”.
